The target of the assay is α2β1 integrin on human cortical neurons (human) (UniProt P17301). In words: cell-based or functional assay.

“Human perlecan Domain V, recombinant, C-terminal 6xHis tag (from UniProt P98160 3687-4391) (ligand)”: the EC50 of domain V inhibition of Aβ toxicity in human cortical neurons, domain V alone (FIG. 4) came to 123 nM; the EC50 of domain V inhibition of Aβ toxicity in human cortical neurons, in the presence of a mouse IgG control or the α2 antibodies 1950 and 1998 is 98 nM; the EC50 of domain V inhibition of Aβ toxicity in human cortical neurons, in the presence of the αV integrin antibody worked out at 47 nM; the EC50 of domain V inhibition of Aβ toxicity in human cortical neurons, in the presence of the β1 integrin antibody was less than 38 nM. The substance also came in with an average EC50 of domain V inhibition of Aβ40 toxicity in human cortical neurons (alamarBlue viability, n=5 experiments) of 164 nM.
Take “LG3 C-terminal domain of human perlecan Domain V (amino acids 4188-4391), C-terminal 6xHis tag (from UniProt P98160 4188-4391) (ligand)”: the EC50 of LG3 inhibition of Aβ40 toxicity in human cortical neurons (alamarBlue viability) is 50 nM.

The record behind these values is patent publication US20130036481A1.
